Experimental data reported in paper PMC6356861 (ACS Omega, 2019).

Biological target: the molecule itself
Assay: SAXS

B1: simian virus 40 (SV40) major capsid protein VP1, as soluble VP1 pentamers (natural protein)
chain: APTKRKGSCPGAAPKKPKEPVQVPKLVIKGGIEVLGVKTGVDSFTEVECFLNPQMGNPDEHQKGLSKSLAAEKQFTDDSPDKEQLPCYSVARIPLPNINEDLTCGNILMWEAVTVKTEVIGVTAMLNLHSGTQKTHENGAGKPIQGSNFHFFAVGGEPLELQGVLANYRTKYPAQTVTPKNATVDSQQMNTDHKAVLDKDNAYPVECWVPDPSKNENTRYFGTYTGGENVPPVLHITNTATTVLLDEQGVGPLCKADSLYVSAVDICGLFTNTSGTQQWKGLPRYFKITLRKRSVKNPYPISFLLSDLINRRTQRVDGQPMIGMSSQVEEVRVYEDTEELPGDPDMIRYIDEFGQTTTRMQ
B1: binds.
